Data set [1] has as its target T1, SRF (serum response factor) (UniProt Q9JM73 Q9JM73:1-504).
T1 sequence: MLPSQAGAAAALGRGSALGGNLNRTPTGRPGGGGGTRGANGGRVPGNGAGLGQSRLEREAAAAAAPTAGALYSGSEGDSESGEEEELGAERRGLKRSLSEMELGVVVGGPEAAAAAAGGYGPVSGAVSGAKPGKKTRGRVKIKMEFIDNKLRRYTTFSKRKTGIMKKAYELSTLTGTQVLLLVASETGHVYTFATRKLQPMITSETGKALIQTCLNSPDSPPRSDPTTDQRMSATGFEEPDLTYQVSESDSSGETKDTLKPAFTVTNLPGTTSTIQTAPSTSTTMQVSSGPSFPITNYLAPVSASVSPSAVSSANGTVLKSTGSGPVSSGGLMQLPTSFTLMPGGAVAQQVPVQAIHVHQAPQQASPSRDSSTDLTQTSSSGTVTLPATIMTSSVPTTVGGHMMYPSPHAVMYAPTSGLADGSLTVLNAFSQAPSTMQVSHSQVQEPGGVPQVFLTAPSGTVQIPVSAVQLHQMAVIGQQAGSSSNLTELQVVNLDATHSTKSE
Description: competition; cold mutant competitor; competition with WT or mutant probe indicates specificity of band.

Data set [2] deals with T1, SRF (serum response factor). Description: EMSA; radiolabeled probe; cold WT competition. (In general: Mobility shift assays separate free from complexed probe on a gel.)

Data on 2 molecules can be found in patent publication US20120093789, “Methods of Modulating Smooth Muscle Cell Proliferation and Differentiation” (published 2012).

B1: miR-143/145 enhancer SRF site mutant (dsDNA)
DNA 1: GGGAGCAGCCTTGCTACCGAAGGGCAGG
DNA 2: CCTGCCCTTCGGTAGCAAGGCTGCTCCC
Take B1: the binding result in data set [1] is “no binding”.

B2: miR-143/145 enhancer SRF site (CArG) WT (dsDNA)
DNA 1: GGGAGCAGCCTTGCCATATAAGGGCAGG
DNA 2: CCTGCCCTTATATGGCAAGGCTGCTCCC
As for B2, the binding result in data set [2] is given as “binds”.
